Assay: yeast display, Sf9 membrane polyspecificity reagent, FACS + sequencing; frameworks hold sequencing errors
Outline: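 A nanobody's polyreactivity label depends on the gate it was sorted from. Yeast display cells were stained with 10% biotinylated, detergent-solubilized Sf9 membrane reagent for 1 hour at 4 °C, enriched on streptavidin microbeads and sorted by FACS. The low and high (top ~1%) gates were set on anti-HA fluorescence for expression and streptavidin fluorescence for reagent binding.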

| Sequence | polyreactivity (PSR sort gate) |
| --- | --- |
| QVQLVESVGGLVQAGGSLRLSCAASGSIFNYYAMGWYRQAPGKERELVAAITTSGGNTYYADSVKGRFTISRDNPKNTVYLQMNSLKPEDTAVYYCAADYWASGGEYDYWGQGTQVTVSS | low polyreactivity |
| QVQLVESVGGLVQAGGSLRLSCAASGSIFQPYAMGWYRQAPGKERELVAAISIGDSTNYADSLKGRFTISRDNAKNTFYLQMNSLIPEDTAVYYCNTTGEYYDYWGQGTQVTVSS | low polyreactivity |
| QVQLVESVGGLVQAGGSLRLSCAASGSIFSAYAMGWYRQAPGKERELVASISWSGSSTYADSVKGRFTISRDNAKNTVYLQMNSLKPEDTAVYYCAAGYYSFRSAYDYWGQGTQVTVSS | high polyreactivity |
| QVQLVESVGGLVQAGGSLRLSCAASGSIFSWYAMGWYRQAPGNARELVAAIRRGGSTYYADSVKGRFTISRDNATNTVYLQMNSLKPEDTAVYYCADRVYTAASRGRGDYWGQGTQVTVSS | low polyreactivity |
| QVQLVESVGGLVQAGGSLRLSCAASGSIFVTYAMGWYRQAPGKERELVAVITWGGGSTYYADSVKGRFTISRDNAKNTVYLQMNSLIPEDTAVYYCAKDSYYYRRDVNVDYWGQGTQVTVSS | low polyreactivity |
| QVQLVESVGGLVQAGGSLRLSCAASGSIISFNAMGWYRQAPRKERELVASISRNGGSSYYADSVKGRFTISRDNAKNTVYLQMNSLKPEDTAVYYCAVKVRNRRYGYWGQGTQVTVSS | high polyreactivity |
| QVQLVESVGGLVQAGGSLRLSCAASGSILWLYAMGWYRQAPGKERELVAAISGSGRTNYADSEKGLFTISRDNAKNTVYLQMNSQKPEDTAVYYCARVHGTSESKYYYWGQGTQVTVSL | low polyreactivity |
| QVQLVESVGGLVQAGGSLRLSCAASGSNFRGYAMGWYRQAPGKERELVAAISWSGVSTYYADSVKGRFTISRDNAKNTVYLQMNSLKPEDTAVYDCAAGYSSAYLRFGYWGQGTQVTVSS | low polyreactivity |
| QVQLVESVGGLVQAGGSLRLSCAASGSTFADYVMGWYRQAPGKERELVAAITSSGGSTYYADSVNGRFTISRDNAKNTVYLQMNSLKPEDTAVYYCAAQQSPSVDYWGQGTQVTVSS | low polyreactivity |
| QVQLVESVGGLVQAGGSLRLSCAASGSTFGFNAMGWYRQAPGKERELVAAIRRSDSSTYYADSVKGRFTISRDNAKNTVYLQMNSLKPEDTAVYYCAADVWVSWLLFKYEYWGQGTQVTVSS | low polyreactivity |
| QVQLVESVGGLVQAGGSLRLSCAASGSTFGYYAMGWYRQAPGKERELVATITWSGGSTNYGDSVKGRFTISRDNEKNTVYLQMKSLKPEDTAVYYCAADLKYWYFGLAFIEVDYWGQGTQVTVSS | low polyreactivity |
| QVQLVESVGGLVQAGGSLRLSCAASGSTFIQYAMGRYRHAPGKERELVASNSRSAGSTYYADSVKGRFTISRDNAKNTVYLQMNSLKPEDTAVYYCAADSYYLGYYLGSYSWDYGYWGQGTQVTVSS | high polyreactivity |
| QVQLVESVGGLVQAGGSLRLSCAASGSTFPVYVMGWYRQAPGKERELVAAITRIGGSTYYADSVKGRFTISRDNAKNTVYLQMNSLKPEDTAVYYCAAGGTARDDSWGQGTQVTVSS | low polyreactivity |
| QVQLVESVGGLVQAGGSLRLSCAASGSTFQGNAMGWYIQAPGKERELVAAISRSGGSTYADSVKGRFTISRDNAKNTVYLQMNSLKPEDTAVYYCAAYSGVGYLWFDYWGLGTQVTVSS | low polyreactivity |
| QVQLVESVGGLVQAGGSLRLSCAASGSTFRRYAMGWSRQAPGKERELVASISRSGGSTYYADSVKGRFTISRDNAKNTVYLQMNSLKPEDTAVYYCAKKPYKSAYDYSSAYDYWGQGTQVTVSS | high polyreactivity |
| QVQLVESVGGLVQAGGSLRLSCAASGSTFSSNAMGWYRQAPGKERELVAAINRTGNTYYADSVKGRFTISRDNAKNTVYLQMNSLKPEDTAVYYCNTDLNLYRGGGYWGQGTQVTVSS | low polyreactivity |

| Sequence | polyreactivity (PSR sort gate) |
| --- | --- |
| QVQLVESVGGLVQAGGSLRLSCAASGSTFYGYAMGWYRQAPGKETELVAAINWSGGSTFYADSVKGRFTISRDNAKNTVYLKMNSLKPEDTAVYYCNKAWRGSVSRRYYYWGQGTQVTVSS | high polyreactivity |
| QVQLVESVGGLVQAGGSLRLSCAASGSTFYNNAMGWYRQAPGKERELVAAISSGGGTYYADSVKGRFTISRDNAMNTVYLQMNSLKPEDTAVYYCAADFANTTHWGRIKRNDYWGQGTQVTVSS | low polyreactivity |
| QVQLVESVGGLVQAGGSLRLSCAASGSTLFYNAMGWYRQAPGKERELVATISGGGVSTYYADSVKGRFTISRDNAKNSVYLQMNSLNPEDTAVYYCAAAGWSEGGYDYWGQGTQVTVSS | low polyreactivity |
| QVQLVESVGGLVQAGGSLRLSCAASGYIFDRNAMGWYRQAPGKERELVAAITKRGGITYYADSVKGRFTISRDNAKNTVYLQMNSLKPEDTAVYYCNALARSSRYDYWGQGTQVTVSS | low polyreactivity |
| QVQLVESVGGLVQAGGSLRLSCAASGYTFYLYAMGWYRQAPGKERELVAAISYSSGGTYYADSVKGRFTISRDNAKNTVYLQMNSLKPEDTAVYYCAADAYDGEGTYPFEYWGQGTQVTVSS | low polyreactivity |
| QVQLVESVGGLVQAGGSLRLSCDASGSIFASYAMGGYRQAPGKERELVAAISTSGVSTHYADSVNGRFTISRENAKNTVYLQLNSLKQEDTAVYYCAATPGYKRYYWGQGTQVTVSS | high polyreactivity |
| QVQLVESVGGLVQAGGSLRLSCGSSGSIFPYNAMGWYRQAPGKERELVATISSGGSTNYADSVKGRFTISRDNAKNTFYLQMNSLKPEDTAFYYCAADVIVFYYAPNYCGDIEYGYWGQGTQVTVSS | low polyreactivity |
| QVQLVESVGGLVQAGGSLRLSCSASGRTFAFYAMGWYRQAPGKVRELVASISSTGDRTYYADSVKGRFTISRDNAKNTVYLQMNSLIPEDTAVYYCAARWRYTYYYWGQGTQVTVSS | high polyreactivity |
| QVQLVESVGGLVQAGGSLRLSFAASGSTFDVYAMGWYRQAPGKERELVAAIRSSGGSTFYADSVKGRFTISRDNAKNIVYLQMNSLNPEDTAVYYCAARSFVVSGYNKYYEYGYWGQGTQVTVSS | low polyreactivity |
| QVQLVESVGGLVQAGGSLRLSSAASGFTFTRNTMGWYRQAPGKERELVAAITRGGSTNYADSVKGRFTISLDTAKNPVYLQMHSLKPEDTAVYYCAADAPFDSPYNYWGQGTQVTVSS | low polyreactivity |
| QVQLVESVGGLVQAGGSLRLSSAASGRIFVFNAMGWYRQAPGKERELVAAISRRGGSTYYADSVKGRFTISRDNAKNTVYLQMNSLNPEVTAVYYCAAVYPDYSSARYDYWGQGTQVTVSS | high polyreactivity |
| QVQLVESVGGLVQAGGSLRLTCAASGIILHDNTMGWYRQAPGKEREVVAAITSDGSTNYADSVKGRFTISRDNAKNTVYLQMNSLKPEDTAVYYCNTDDGPYTEFDYWGQGTQVTVSS | low polyreactivity |
| QVQLVESVGGLVQAGGSLRLTCAASGLILRRYAMGWYRQAPGKEELVAAITSDASTYYADSVKGRFTISRYNAKNTVYLQMNSLKPEDPAVYYCAADTYDNDYYYWGQGTQVTVSS | high polyreactivity |
| QVQLVESVGGLVQAGGSLRLTCVASGRIFLTYAMGWYRQAPGKERELVAAISYSGASTYYADSVKGRFTISRDNAKNTVYLQMNSLKPEDTAVYYCATERVGTPRMNYWGQGTQVTVSS | high polyreactivity |
| QVQLVESVGGLVQARGSLRLICAASVRIIRGNAMGWYRQAPGKERELVAAISRRSGSTYYADSVKGRFTISRDNAKNTVYLQMISLKPEDTAVYYCAATCSLGDFRYDYWGQGTQVSVSS | high polyreactivity |
| QVQLVESVGGLVQEGGSLRLICAASGSIFYTYAMGWYRQAPGKERELVAAIRSTGRTNYADSVKGRFTISRDNAKNTVYLHMNSLKPEDTGVYYCAAGTNYGKLRIRFDYWGQGTQVTVSS | low polyreactivity |

Reference: the nanobody polyreactivity screen of Harvey et al. (2022)
